Source: a protein production outcome set (Wang et al. 2014)

Assay: label from the status in PepcDB records
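Further: failed if final PepcDB status was selected cloned or expressed and not failed if soluble or beyond.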

| Sequence | protein production |
| --- | --- |
| MKTGKELKPGTVIRIDNDPWLVQKAEFTKSGRNSAIMKTKLKNLLTGYKTETVYGADDKLDDVILDRKEATLSFISGDTYTFMDTTDYTMYELNAEDIEAVLPFIEEGMTDVCEAVFFEDRLVSVDLPTTIVRQVDYTEGSARGDTSGKVMKPAKLKNGTELSVADFIEIGDMIEIDTREGGSYKGRAKV | failed |
| MIFNTLARYFLKRYLMTTIWFVLGVSSIIYLADFSETARRMSGLPGYSVPAALGLTALRLPLILQQTVPFIALFVGMTTLISLNRRYELVVTRAAGISAWQFILPFVLGAVFIGILSVMVLNPIAAWGQNKSLAMEAGLRNDAGGGRQQEIIPWMRQSSGGKDTIIGAKSFEDNGTMLLDVVLIDVDKDGNIVSRKDAKSAKLEDGYWLLNGVSETRAGHVPVRQESMQISTNLRREFVQERMTQTETVAFFDLSHKIEVAKSFGLSSKALETQYHFLLSTPLLLVAMTLIAATVSLKFSRFAQSRSVILGGIVSGFVLYVVTVLVRAFGSGGVVPPTVAVWVPVIVALALGATILLHQEDG | failed |
| MENGEAKQSVPLLTPYKMGRFNLSHRVVLAPLTRQRSYGNVPQPHAAIYYSQRTTPGGFLITEATGVSDTAQGYQDTPGIWTKEHVEAWKPIVDAVHAKGGIFFCQIWHVGRVSNSGFQPNGKAPISCSDKPLMPQIRSNGIDEALFTPPRRLGIEEIPGIVNDFRLAARNAMEAGFDGVEIHGANGYLIDQFMKDTVNDRTDEYGGSLQNRCKFPLEIVDAVAKEIGPDRVGIRLSPFADYMESGDTNPGALGLYMAESLNKYGILYCHVIEARMKTMGEVHACPHTLMPMRKAFKGTFISAGGFTREDGNEAVSKGRTDLVAYGRWFLANPDLPKRFQVDAPLNKYDRPTFYTSDPVVGYTDYPFLESTA | not failed |
| AGGRERRVAVLFCDLRDFTRIAEHRLPYDTVFLLNRYFEVVGEAVEGSGGVVDKFIGDGALAIFGLKTPLPEACRQALSAAARLSQGIRALNQTFEGELEQPLRLAIGLHAGPAIIGEMGYGQATSLTVVGDTINTASRLEGLAKEHDVELAVSAELVERAGLSFEGHRRLEIGLRGRKATLETWIIGDAAQLSLSLP | failed |
| MKRKTIRILLISSGLILILLVGYRLYLEYQTDIQLFLNPKASKTQLLERIRSHGFSAALLLVFLTAIMCAVPGIPTSVIGVIAGLSFGPFSGTLINVLGNSMGNLVAIFLMHHIKFLDKKTETNHWVQSIRRMKHPKIGIMVGYMIPIIPSSVINFAADTMQLPLKNLIAAIFIGVIPSSILYACGGEALFHGYNKTAVLLIVSVLLFVGLVVIIEKDRKRFQKTVL | failed |
| MKPRDINKLIASKIFGYEIKDDNIIKDGRYRLGIPLYSQNIESAWQVVEKLEYDVKVTKTDLKPKYQVHVFVPGGVKMVFAETAPMAICKGALASVDIELQD | not failed |
| MDKAATPWLRYLEELRPHLQGRDHRGRKGSLRWLEALMAERGGRAGTVRNILYKDLGSPEEKERLYRILADLYREAGLKPPPPPAELFLKSARKVLGRDKRRIFRHFLRELEAGRRPQVVVVGGAATGKGVLLSALRQALAAFPGKTPFVLNLGGELAQALIPLAEELGVEAETLLSQLSPTQPYILQGALQQEFLAALAQALNRAGRPLLLRAEAQGTLEGLPLRGPDGGQRGLSAWLEPFLRSLEIPYLAALTEPPPTLPYQPLSPPSREEARRFVRERLPHLPPERLEALVNQAGRNFGELSRLVLLEAAKHDPETPLQDDPALRPLLEALAAFSPEADPAFPAALLERALNRPLERLSQAEKALLEWVGDGLVRPSLRSLLPQEAPRELHRLALEFFPRENLFRRLYHARKAGERRILLDLLTEDPARLALLPGLWQEARSWPKEDREALAAALVRYRAVLGQYAHPEVEEALALLAQAEDPRLRASARIKAAEAKADAGLYKEAEALLPPEEEFPLLDETARAEGLLVRAAVERWKGDYEKAARYAERAAELSVAPFLKDRVQLWRGLVAKDLGRYEEALTALAQVGHDPLLLGRARYQMGDLLMRLGSPEARARMEEGLKALEEAGAPQDEVARVRARYATLLRRLGLYPEAEAAIRRALEEALDPFTRARVESEAGILQAAQGRPLEALALLSRAEAYFRTTGERPKEARYRHLRTLFRLAAAYLLLETGTPYRPPLLGGLKAPEAERLLWDLLAKIPEEATDRYTALRLDAESLLALLLPPKEARERLRPFLGLANPYLRAQARLGYAEALLREGAYGEALAQTVALPPLLDPGLKAQAKATEVLALLALGEEEAAWQKLVEAKQSGLPEPFRLQLGRAVGRAHPGLAARLPPTPLAPPEALGLHLANPD | failed |
| MTENTNFKSGYSEVNGLKMYYEIHGEGKPLVLIHGGGSTIKTSFGNILPLLLKSRQIIVMELQAHGHTGDRETDLTFEQDADDVAKLLENLQITKADFLGFSNGGHTTIEIALRHKKIVDKILLASAFYKRDAVVPEFWDGFDSATLEMMPKVLQEGYLKANDDEKGLLNMFKKDVQKMKDFKGWTDEQMKSITAKTLIINGNNDVGSIEHAVEMYRILPNCELAILPGGHGTYLGAIESLPNGEWTMKYVAELIEEFFDKH | failed |
| SDDREMDDGRWKASALRVPLQVSSAVIKQEVVTRLAPDPVPLTEGAIGIFLSGTEPESGQEDSGYKVIDNRKYVYSEGHWGPPTANDTIYLVGNDADVCAYYPYKDSYTDKTVIPLQSQDYVETEDIYYALNTMINGFTPAITFDMVHAYSLVELKISRENYFMPCEISKITLKNSNLIKKGTINIAVDGSIHSSETGNYDLTTVTDASPHTLSVGESYVCRVLMIPVPLKIERTDAEGGEFGLSVSLVIDGQQMLVEIPYSELGEFRQGEKYVIGLKIKGTEIVPTVKALEWEDEEVNGGNKYPVE | not failed |
| MNLRAIKAILIKDLKEIRREKMVVFWIFVFPLMWVTLMGALWGGPGSPVTVDVGVVNPGGNISTLITEIMENSTINGTQLFNVKLFPNASLGIEALKHGSIKALVLFPEDFDINITSGLQGRVLVYFDKTDPQNYQIVSSIIRSFFSEVGREFRARKIEMMMQYIPTEYKEYLLATAEPIVLEEKIIHGESGRGIKFYVTSFIGIQFFFATMLMIGGSVLEEITKGTLRRIAASPTTPWDFLIGKSLSTLTTIIVSIIIGIGYARVVFGATLFPSLFGWAIIFTAAVFSMSLGLAIVMLTRSERSTPAVVNLVSMPLLFLAGIVIPESIMPEWARPIAHYFPLGRALKVLRLSDIYGRPPGELVGDFIYVLIWSVLMAMVAVASYAWAIRRID | failed |
| MTKKILTTPIKDEDLADIKAGDIIYLNGHIVTCRDVAHRRLIEGGRELPVNVAGGAILHAGPIVRPIKGTEDKFEMVSVGPTTSMRMEKFEKEFIAKTGVKLIVGKGGMGKGTEEGCMEHKALHCVFPAGCAVVAAVCVEEIEDAQWRDLGMPETLWVCRVKEFGPLIVSIDTHGNNLFEQNKVIFNQRKEIVADEICKHVSFIK | failed |
| MSGSLRDSAIDHFNKTISLMQKRQNKEALEELEKAEEAAKQAKANDILIHTVNLRGQLMLTLGALDEVLRICGFASNFFADILLKDPENEFFQQSFQMNLNNLGTTGNFYHNTGRFPQAKKAYETGLGITLKLLQSSPQDDFLQNYTGTTLNNLGNLLSDMGRIEDAKNRYEKALEMREKLLEKDPENVAYQSYVGGTLNNLGNLLKNMGRIEDAKNRYEKALEMREKLLEKDPENVAYQSYVAMTLNNLGNLLKNMGRIEDAKNKYEKALEMREKLLEKDPENVAYQSDVAMTLNNLGTLLSDLGKIEDAKNRYEKALEIYEKLLENDPENVAYQSYVAMALNNLGNLLKNMGRIEDAKNRYEKALEMREKLLENDPENVAYQSDVAMTLNNLGTLLSDMGRIEDAKNRYEKALEIYEKLLEKDPENIAYQSDIGGTLNNLGTLLSDMGRIEDAKNRYEKALEIYEKLLEKDPENIAYQSEVGGTLNNLGTLLSDMGRIEDAKNRYEKALEIYEKLLEKDPENIAYQSEVGTMLNNLGNLLSDMGRIEDAKNRYKKALEIYEKLLEKDPENIAYQSYVGGTLNNLGNLLSDMGRIEDAKNRYKKALEIYEKLLEKDPENVAYQSYVGTMLNNLGTLLSDMGRIEDAKNRYKKALEIYEKLLEKDPENVAYQSYVGGTLNNLGNLLSDMGRIEDAKNRYKKALGIYEKLLEKDPGNLAYHSEVNTIQCKVKKVKGSGRC | failed |
| MEPNKDDNVSLAATAQISAPPVLQDASSLPGFSAIPPVVPPSFPPPMAPIPMMPHPPVARPPTFRPPVSQNGGVKTSDSDSESDDEHIEISEESKQVRERQEKALQDLLVKRRAAAMAVPTNDKAVRDRLRRLGEPITLFGEQEMERRARLTQLLTRYDINGQLDKLVKDHEEDVTPKEEVDDEVLEYPFFTEGPKELREARIEIAKFSVKRAAVRIQRAKRRRDDPDEDMDAETKWALKHAKHMALDCSNFGDDRPLTGCSFSRDGKILATCSLSGVTKLWEMPQVTNTIAVLKDHKERATDVVFSPVDDCLATASADRTAKLWKTDGTLLQTFEGHLDRLARVAFHPSGKYLGTTSYDKTWRLWDINTGAELLLQEGHSRSVYGIAFQQDGALAASCGLDSLARVWDLRTGRSILVFQGHIKPVFSVNFSPNGYHLASGGEDNQCRIWDLRMRKSLYIIPAHANLVSQVKYEPQEGYFLATASYDMKVNIWSGRDFSLVKSLAGHESKVASLDITADSSCIATVSHDRTIKLWTSSGNDDEDEEKETMDIDL | failed |
| MARMAVTLTHVMAMHAQILKFIVTALFVVPLFLAPAEAQTSETDLLAQLQTAPESEANRLERELALIWDQSGSAAMDLLLKRGREALEDEDNARAVEHLSALTDHAPEFAEGWHARATALYRAGLYGPALDALHQALLLNPNNFNAIFGLGVMMREFGDLDRAARAFDRVLELHPHHKRAKAAKEQMAVQGLGQTL | failed |
| MPINFHDANNKYTYAQRNAHISWREMIKSITSIQNKRIVDIGCGGGIYTKELALMGAKSVVGIDFSKEILQAAKENCSGFSNISFIHGDAHSTPYPNDTFDIVISRAVIHHLQDIPTFLREASRILKKNGVLIVQDRTIEDCTIPGSPEHIRGYFFSTFPKLIETESKRRPKTTTIQQELQKYFLHVFPTQTQWEVRKIHDSVEALLQDLSPRTGRSILYELTDYELSQLLQQVQTALQNVSPIIEKDRWTIWSAMKL | failed |
| MSLTDEPKLLAEPREGVPNVIDTLPAFRDYCSELASSHGSLAADAERASGFRYGHEDWLVQFKRDGAGIGLLDPQALAAAGADWNDFNRAVGDAVWILHDSLQDLPGFDELGMEPQRLFDTEIAARLLGLKRFGLAAVTEHFLGLTLAKEHSAADWSYRPLPRDWRNYAALDVELLIELETKMRAELKRQGKMEWAQEEFDYALKEGLGPRKEHLIPWMHVSHITEVMRDRQALAIVRALWTRRDELAREYDIAPTLLLSDSSIIEVAKRKPHNAAQFRSIRSINERVRIHTDSEQDKMFERYAPIQRKIKPSMWKNIIQDALALPPSEWPDVDGGAARRHESQSASAPKSIRVWKERYPERLQVLNRVRKAVSQIAEDTRTPVEIVIKPQYLRNLCWTDEPRKRDVARFLSEQGARDWQVSLVAESVSRAIEGHHHHHH | not failed |
| MSLALRGELVVDKTKRKKRRELSEEQKQEIKDAFELFDTDKDQAIDYHELKVAMRALGFDVKKADVLKILKDYDREATGKITFEDFNEVVTDWILERDPHEEILKAFKLFDDDDSGKISLRNLRRVARELGENMSDEELRAMIEEFDKDGDGEINQEEFIAIMTGDI | not failed |
| MGTVMDVLKGDNRFSMLVAAIQSAGLTETLNREGVYTVFAPTNEAFRALPPRERSRLLGDAKELANILKYHIGDEILVSGGIGALVRLKSLQGDKLEVSLKNNVVSVNKEPVAEPDIMATNGVVHVITNVLQP | not failed |
| MTIMLTPMQTEEFRSYLTYTTKHYAEEKVKAGTWLPEDAQLLSKQVFTDLLPRGLETPHHHLWSLKLNEKDIVGWLWIHAEPEHPQQEAFIYDFGLYEPYRGKGYAKQALAALDQAARSMGIRKLSLHVFAHNQTARKLYEQTGFQETDVVMSKKL | not failed |
| MQRQGSGGGSAVIRVRVAGGVLLAAHLMLVVWITLRPLDVPWVSPANLHPFAGIRADLALGPREAVRRIGEGLGLLAPLGVLLPMVAGRLAVSPLASLTRTVAAGALISLGIELLQTGVPGQVVDVDSLLLNTVGVALAHLAIVPAGRARLRRRAETRRRAALGREELSQGLTPTIPRVGIAP | failed |
